Entries after “also recorded” stand apart in the source; their conditions may differ.
Tests used:
[1] = biological target: T1, HEK-293-ALL cells transfected with human SLC2A1 (Homo sapiens, UniProt P11166); assay: 2-Deoxyglucose uptake assay (Glucose Uptake-Glo); assay type: cell-based; details: 2-hour incubation, 0.35 nM to 6.89 μM, 1 mM 2DG for 20 min, FIG. 4
T1 construct: expressed in transfected cells; host or cells: HEK-293-ALL
T1 sequence (P11166 1-492): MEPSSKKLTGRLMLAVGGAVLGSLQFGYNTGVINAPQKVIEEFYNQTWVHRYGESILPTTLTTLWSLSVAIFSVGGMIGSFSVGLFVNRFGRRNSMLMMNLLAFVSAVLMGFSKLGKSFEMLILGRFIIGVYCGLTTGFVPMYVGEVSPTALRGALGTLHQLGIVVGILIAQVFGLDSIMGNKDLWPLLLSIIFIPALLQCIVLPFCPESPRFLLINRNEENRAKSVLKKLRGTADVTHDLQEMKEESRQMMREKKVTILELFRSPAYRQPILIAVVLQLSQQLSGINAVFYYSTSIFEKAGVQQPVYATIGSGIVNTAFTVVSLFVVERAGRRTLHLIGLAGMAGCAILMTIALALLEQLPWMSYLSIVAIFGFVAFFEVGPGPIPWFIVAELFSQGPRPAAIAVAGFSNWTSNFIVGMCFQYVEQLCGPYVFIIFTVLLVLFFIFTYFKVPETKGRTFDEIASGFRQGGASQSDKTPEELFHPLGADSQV
Procedure: To evaluate if the described anti-SLC2A1 antibodies inhibit glucose uptake, a commercial Glucose Uptake-Glo Assay kit (Promega) was utilized according to manufacturer's instructions. In short, HEK-293-ALL cells were transfected with human SLC2A1 expression plasmid and were incubated at 37° C. overnight in the presence of 5% CO2. Cells were washed with 0.5% BSA PBS twice and 7000 cells were plated per well into white clear bottom 96-well plates in 0.5% BSA PBS in the presence of 0.35 nM to 6.89 μM anti-SLC2A1 antibodies or glucose uptake inhibitor BAY-876 (CaymanChem). Cells were incubated for 2 hours at room temperature. Glucose uptake was initiated by the addition of 1 mM 2-deoxyglucose (2DG) and was allowed to proceed for 20 min at 37° C. in the presence of 5% CO2. After adding STOP and neutralization reagents included in the kit, luminescence was measured using GloMax Explorer microplate reader (Promega). Nonspecific luminescence was measured in lysates from cells without (2DG) being added. Data was normalized to nonspecific luminescence and to the average value of luminescence in the presence of no inhibitors.

[2] = biological target: T2, SLC2A1 pseudotyped VLPs (UniProt P11166 1-492); assay: ELISA
T2 chain: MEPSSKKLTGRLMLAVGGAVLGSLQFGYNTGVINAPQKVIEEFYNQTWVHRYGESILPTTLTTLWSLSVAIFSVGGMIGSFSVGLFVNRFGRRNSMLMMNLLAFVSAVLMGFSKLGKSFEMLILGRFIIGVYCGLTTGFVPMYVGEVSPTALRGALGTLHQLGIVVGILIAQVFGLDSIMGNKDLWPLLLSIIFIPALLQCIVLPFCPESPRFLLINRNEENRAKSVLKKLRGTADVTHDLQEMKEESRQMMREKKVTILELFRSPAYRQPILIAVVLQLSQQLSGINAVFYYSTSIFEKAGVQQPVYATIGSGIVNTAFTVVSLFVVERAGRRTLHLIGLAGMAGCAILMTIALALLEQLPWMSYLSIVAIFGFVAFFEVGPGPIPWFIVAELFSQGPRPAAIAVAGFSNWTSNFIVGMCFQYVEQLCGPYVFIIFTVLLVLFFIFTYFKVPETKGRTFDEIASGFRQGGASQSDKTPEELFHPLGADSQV

[3] = biological target: T3, SLC2A2 pseudotyped VLPs (Homo sapiens, UniProt P11168); assay: ELISA-based VLP binding assay, SLC2A2; details: compared to MOCK VLPs, FIG. 3
T3 sequence (P11168 1-524): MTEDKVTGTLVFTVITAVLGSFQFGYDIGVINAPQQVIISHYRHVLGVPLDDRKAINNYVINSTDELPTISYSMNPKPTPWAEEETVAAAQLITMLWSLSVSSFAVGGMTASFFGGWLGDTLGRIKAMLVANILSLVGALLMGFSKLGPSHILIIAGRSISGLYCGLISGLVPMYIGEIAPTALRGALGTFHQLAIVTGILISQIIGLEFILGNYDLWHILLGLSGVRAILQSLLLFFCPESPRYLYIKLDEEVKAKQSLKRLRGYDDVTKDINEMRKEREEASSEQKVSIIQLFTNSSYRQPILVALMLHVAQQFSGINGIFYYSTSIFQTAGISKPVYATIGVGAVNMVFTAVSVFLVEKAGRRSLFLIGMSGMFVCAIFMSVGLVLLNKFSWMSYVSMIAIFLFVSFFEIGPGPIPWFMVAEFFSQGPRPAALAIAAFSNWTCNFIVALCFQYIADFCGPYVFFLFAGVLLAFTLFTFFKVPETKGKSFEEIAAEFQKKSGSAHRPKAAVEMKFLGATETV
Procedure: (§1) An ELISA-based VLP binding assay was carried out to compare the EC50 values of antibody clones (FIG. 1). Similarly, ELISA based VLP binding assay was performed to compare the binding of the antibodies to different glucose transporters (FIG. 3). MaxiSorp™ high-capacity binding ELISA plate (Thermo Fisher Scientific, US) were coated with 5 μg/mL SLC2A1, SLC2A2, SLC2A3, SLC2A4 pseudotyped VLPs or MOCK VLPs in PBS overnight. The plate was washed and blocked for 1 h with 0.05% Tween 20, 2% BSA in PBS. Serial dilutions of antibodies were incubated on a washed plate for 1 hour, followed by a 1-hour incubation with goat anti-human IgG horse radish peroxidase (HRP) conjugated (Invitrogen) antibody. TMB (3,3′,5,5′-Tetramethylbenzidine) Solution VII (Biopanda Diagnostics) was used as a substrate for HRP and 0.5 M H2SO4 was used as stop solution. After every step, the wells were washed with 0.05% Tween 20, 0.1% Proclin 300 PBS solution. Absorption at 450 nm was measured with Thermo Scientific™ Multiskan™ FC Microplate Photometer. Exemplary wise used antibodies 1G2 #9, 2A2 #12, 2E5 #22, 5G5 #30, 6F12 #33, 7C3 #39 all bound SLC2A1 VLPs with low nanomolar EC50 values (FIG. 1).

[4] = biological target: T4, SLC2A3 pseudotyped VLPs (Homo sapiens, UniProt P11169); assay: ELISA-based VLP binding assay, SLC2A3; details: compared to MOCK VLPs, FIG. 3
T4 sequence (P11169 1-496): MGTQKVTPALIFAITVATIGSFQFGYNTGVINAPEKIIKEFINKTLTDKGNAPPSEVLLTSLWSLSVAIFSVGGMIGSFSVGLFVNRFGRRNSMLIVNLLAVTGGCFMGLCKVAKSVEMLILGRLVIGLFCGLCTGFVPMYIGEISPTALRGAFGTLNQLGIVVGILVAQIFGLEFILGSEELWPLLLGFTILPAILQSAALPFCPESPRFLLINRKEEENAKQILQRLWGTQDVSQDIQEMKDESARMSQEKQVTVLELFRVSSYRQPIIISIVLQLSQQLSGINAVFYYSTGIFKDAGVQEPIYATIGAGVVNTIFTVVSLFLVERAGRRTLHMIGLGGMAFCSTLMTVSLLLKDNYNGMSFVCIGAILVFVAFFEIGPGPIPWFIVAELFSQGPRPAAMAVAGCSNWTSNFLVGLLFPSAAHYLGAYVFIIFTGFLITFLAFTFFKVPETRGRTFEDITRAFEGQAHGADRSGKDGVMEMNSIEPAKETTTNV
Procedure: as §1

Molecule	glucose (2-deoxyglucose) uptake [1]	EC50 [2] [nM]	binding to SLC2A2 VLPs [3]	binding to SLC2A3 VLPs [4]
2E5 #22 (antibody, V domains shown) VH: AVTLDESGGGLQTPGGALSLVCKASGFTFSTKGMGWVRQTPGKGLEWVAGISSMRRYTYYAPAVKGRATISRDNGQSTVRLQLSSLRAEDSGTYYCARDATYCSWTTSTCGWSGGTIDAWGHGTEVIVSS VL: ALTQPSSVSANLGGTVKITCSGGSGNYGWYQQKSPGSVPVTVIYSNDKRPSDIPSRFSGSGSGSTATLTITGVQVEDEAVYFCGSRDSSYVGLFGAGTTLTVL	strong concentration dependent decrease	0.5	did not bind; also recorded: Some binding	did not bind; also recorded: Some binding
6F12 #33 (antibody, V domains shown) VH: AVTLDESGGGLQTPGGALSLVCKASGFTFSDHAIFWVRQAPDKGLEFVAAISSGTGSWTAYATVVKGRATISRDNGQSTVRLQLNNLRAADTATYYCAKGAGSACCYAGSIDAWGHGTEVIVSS VL: ALTQPSSVSANPGETVKITCSGGSSSSYYGWYQQKSPGSAPVTLIYYNDKRPSDIPSRFSGSKSGSTATLTITGVQVEDEAVYYCGTGDGSFAIFGAGTTLTVL	strong concentration dependent decrease	0.6	did not bind	did not bind

From patent US20260167712A1, “INHIBITORY ANTIBODIES AGAINST GLUT1” (ICOSAGEN CELL FACTORY OÜ, priority 2022, published 2026)
